Entries after “also recorded” stand apart in the source; their conditions may differ. Where two headings read alike, the source gives them in different places.
Tests used:
PrpE = experiment: In vitro assay for PrpE activity; type: biochemical, E. coli; conditions: result in words
Method: This method was performed as described previously. In detail, the purified Acs or PrpE with a final concentration of 0.3 μM were added in the reaction buffer [50 mM HEPES, 10 mM MgCl2, 2.5 mM ATP, 0.5 mM HSCoA, 3 mM phosphoenolpyruvate, 0.1 mM NADH, 1 U pyruvate kinase, 1.5 U lactate dehydrogenase, 5 U myokinase, 10 mM DTT, and 0.2 mM organic acid substrate (acetate, lactate and propionate), PH 7.5] at 25 °C for 30 min. […] Each reaction was performed three biological repetitions.
Samples dissolved in water were analyzed by an Orbitrap Exploris 480 (Thermo Scientific) mass spectrometer in positive ESI mode using the settings described previously[65],[66]. […] An Orbitrap Exploris 480 (Thermo Fisher Scientific) was employed for MS analysis. Spray voltage was set to 3.5 kV, funnel RF level at 40, and ion transfer tube temperature at 320 °C. Data were collected by Xcalibur (v.4.0.27.19). The orbitrap mass analyzer was used as the MS1 detector with 120,000 resolution. The normalized AGC target and maximum injection time were set at 70% /standard for MS1. The MS2 detector was used 15,000 resolution. Targeted mass setting is lactyl-CoA: 840.1436, acetyl-CoA: 810.1330 and propionate CoA: 824.1487. […] The relative intensity of acyl-CoA was analyzed by Xcalibur (v.4.0.27.19).

YiaC [1] = experiment: YiaC lactylation/acetylation of synthetic peptide, LC-MS; type: biochemical, E. coli; conditions: 50 μM TICHDKAFVR, 5 μM YiaC, 2 h
whole-cell lysates = experiment: Immunoblotting of lysine acylation in whole-cell lysates of overexpressing or deficient strains; type: cell-based, E. coli; conditions: immunoblot; for Kla level: overexpression in E. coli BL21 (λDE3) vs empty pET28a, LB 37 °C
Method: All the anti-acyllysine antibodies were purchased from PTM Biolabs Inc. All the synthetic peptides were generated by SciLight Biotechnology, LLC. Antibodies (all diluted 1:1000) and other reagents are listed in Supplementary Data 7.
This method was performed as described previously. In detail, plasmids were constructed to express proteins in E. coli. We used pEASY®-Basic Seamless Cloning and Assembly Kit (TRANS) to construct the plasmids of pET28a-cisY, pET28a-pncB, pET28a-gpmA, pET28a-mdh, pET28a-pykF, and pBR322-pykF-His tag. For mutation, we used the Fast Mutagenesis System (TRANS) to construct the vectors containing point mutated genes. All primers used for PCR are listed in Supplementary Data 7. The constructed vectors of pET28a were transformed into E. coli BL21 (λDE3) for overexpressing strains. The constructed vectors of pBR322 were transformed into E. coli MG1655 and cultured in LB medium containing ampicillin (Amp, 50 μg ml^–1), at 37 °C in shaken flasks at 220 rpm. overnight.
Next, cells were induced with 0.05 mM IPTG at 16 °C overnight followed by harvesting of whole-cell lysates for immunoblotting or protein purification. The proteins were harvested from cultured cells by lysis buffer (20 mM Tris-HCl, pH 8.0, 10 mM MgCl2, 1 mg ml^–1 lysozyme, 50 U ml^–1 nuclease). Then the proteins were mixed with HisPur Ni-NTA Resin and washed by wash buffer (20 mM Na3PO4, 300 mM NaCl, 25 mM imidazole, pH 7.4), the overexpressed proteins were eluted with elution buffer (20 mM Na3PO4, 300 mM NaCl, 250 mM imidazole, PH 7.4). The elution was collected and concentrated using an Amicon Ultra-0.5 Centrifugal Filter Device in storage buffer (100 mM HEPES, 10 mM MgCl2, 7.7 mM KCl, pH 7.0).

YiaC [2] = experiment: Kinetic parameters of YiaC, MALDI-TOF MS; type: biochemical, E. coli; conditions: for kcat: peptide from PncB, MALDI-TOF MS
Method: (§1) This method was described previously. […] Meanwhile, YiaC was incubated with unmodified peptide ([…], from PncB) in the YiaC reaction buffer. The concentrations of the peptides were 5, 10, 16, 32, 60, and 285 uM, and reaction time were 1, 5, 15, and 30 min. […] 0.1 μl samples mixed with 2,5-dihydroxybenzoic acid (DHB) were analyzed by MS. An acceleration voltage of 20 kV was used. MS data were analyzed using FlexAnalysis software for spectral processing and peak detection. The enzyme kinetics were analyzed by Prism GraphPad 8.0 software.

GltA, PncB = experiment: Lactylation reaction of recombinant proteins by YiaC, immunoblotting; type: biochemical, E. coli; conditions: 15 μM YiaC, 20 μM substrate, lactyl-CoA 1 mM, 25 °C, 10 h
CobB [3] = target: T1, CobB (Escherichia coli, UniProt P75960); conditions: for kcat: 37 °C, MALDI-TOF MS, mean ± SEM; for kcat / kcat/Km: n = 3
T1 sequence (P75960 1-279): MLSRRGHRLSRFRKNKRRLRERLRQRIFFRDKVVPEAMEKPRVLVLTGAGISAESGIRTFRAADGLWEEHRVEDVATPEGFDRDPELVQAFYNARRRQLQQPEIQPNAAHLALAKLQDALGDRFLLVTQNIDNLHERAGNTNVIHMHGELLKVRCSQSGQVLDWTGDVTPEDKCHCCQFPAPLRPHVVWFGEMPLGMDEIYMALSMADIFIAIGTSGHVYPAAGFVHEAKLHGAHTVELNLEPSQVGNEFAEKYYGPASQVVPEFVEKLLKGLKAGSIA
Method: as §1

CobB [4] = target: T1, CobB; conditions: 50 μM peptide, 1 μM CobB, pH 8.5, 37 °C, 2 h; with 1 mM NAD^+ unless stated
PykF, GpmA, Mdh = conditions: 15 μM CobB, 20 μM substrate, 25 °C, 10 h
Method: The purified recombinant YiaC (15 μM) and candidate substrate proteins (GltA, PncB, 20 μM) were incubated in YiaC reaction buffer at 25 °C for 10 h. […] The reaction products were analyzed by Western blotting with anti-lactylation.

PykF = conditions: in vitro; result in words
[5] = overexpression in E. coli BL21 (λDE3) vs pET28a
[6] = Deacetylation, Michaelis-Menten best fit, Supplementary Data 2
[7] = deacetylation, AETAEK(ac)YGDEQVK
[8] = delactylation, AETAEK(la)YGDEQVK

B1: PrpE: propionate CoA synthetase (protein, UniProt P77495 1-628, looked up)
Propionate--CoA ligase: MSFSEFYQRSINEPEQFWAEQARRIDWQTPFTQTLDHSNPPFARWFCEGRTNLCHNAIDRWLEKQPEALALIAVSSETEEERTFTFRQLHDEVNAVASMLRSLGVQRGDRVLVYMPMIAEAHITLLACARIGAIHSVVFGGFASHSVAARIDDAKPVLIVSADAGARGGKIIPYKKLLDDAISQAQHQPRHVLLVDRGLAKMARVSGRDVDFASLRHQHIGARVPVAWLESNETSCILYTSGTTGKPKGVQRDVGGYAVALATSMDTIFGGKAGSVFFCASDIGWVVGHSYIVYAPLLAGMATIVYEGLPTWPDCGVWWTIVEKYQVSRMFSAPTAIRVLKKFPTAEIRKHDLSSLEVLYLAGEPLDEPTASWVSNTLDVPVIDNYWQTESGWPIMAIARGLDDRPTRLGSPGVPMYGYNVQLLNEVTGEPCGVNEKGMLVVEGPLPPGCIQTIWGDDGRFVKTYWSLFSRPVYATFDWGIRDADGYHFILGRTDDVINVAGHRLGTREIEESISSHPGVAEVAVVGVKDALKGQVAVAFVIPKESDSLEDRDVAHSQEKAIMALVDSQIGNFGRPAHVWFVSQLPKTRSGKMLRRTIQAICEGRDPGDLTTIDDPASLDQIRQAMEE
- formation of lactyl-CoA from lactate (PrpE): neither Acs nor PrpE could catalyze the formation of lactyl-CoA from lactate

B2: YiaC: GNAT family protein; lysine lactylase (protein, UniProt P37664 1-146, looked up)
Peptidyl-lysine …: MIREAQRSELPAILELWLESTTWGHPFIKANYWRDCIPLVRDAYLANAQNWVWEEDGKLLGFVSIMEGRFLAAMFVAPKAVRRGIGKALMQYVQQRHPHLMLEVYQKNQPAINFYQAQGFHIVDCAWQDETQLPTWIMSWPVVQTL
- lactylation of peptide by YiaC (YiaC [1]; 0.1 mM lactyl-CoA, pH 7, 37 °C): can catalyze lactylation in vitro
- lactylation compared with acetylation by YiaC (YiaC [1]; 37 °C): likely more efficient for lactylation
- Kla level (whole-cell lysates): extensive and obvious increase in Kla levels
- Kac level (whole-cell lysates; [5]): could upregulate Kac
- succinylation level (whole-cell lysates; [5]): did not cause a change in succinylation
- Vmax (YiaC [2]; Acetylation, Michaelis-Menten best fit, Supplementary Data 2): 0.005773
- Km (YiaC [2]; Acetylation, Michaelis-Menten best fit, Supplementary Data 2, read-out: Km): 28.7 µM
- Vmax (YiaC [2]; Lactylation, Michaelis-Menten best fit, Supplementary Data 2): 0.01667
- Km (YiaC [2]; Lactylation, Michaelis-Menten best fit, Supplementary Data 2, read-out: Km): 26.6 µM
- kcat/Km (YiaC [2]; acetylation, n = 3): 8000 M⁻¹ s⁻¹
- Km (YiaC [2]; acetylation, peptide from PncB 5-285 μM, mean ± SEM, n = 3, read-out: Km for peptide): 28.7 ± 1.2 µM
- kcat (YiaC [2]; acetylation, mean ± SEM, n = 3): 0.23 ± 0.04 s⁻¹
- kcat/Km (YiaC [2]; lactylation, n = 3): 36000 M⁻¹ s⁻¹
- Km (YiaC [2]; lactylation, peptide from PncB 5-285 μM, mean ± SEM, n = 3, read-out: Km for peptide): 26.6 ± 1.1 µM
- kcat (YiaC [2]; lactylation, mean ± SEM, n = 3): 0.97 ± 0.03 s⁻¹
- lactylation of candidate proteins (GltA, PncB): can effectively lactylate citrate synthase (GltA) and nicotinate phosphoribosyltransferase (PncB)

B3: CobB: NAD-dependent deacylase; lysine delactylase (protein)
chain: T1 sequence (P75960 1-279)
modifications: left off: His tag (from the vector pET28a and the Ni-NTA purification), end not stated, state not stated
notes: NAD-dependent deacylase; lysine delactylase
- Km (CobB [3]; [6]): 25.4 µM
- Vmax (CobB [3]; [6]): 0.01822
- Vmax (CobB [3]; Delactylation, Michaelis-Menten best fit, Supplementary Data 2): 0.02447
- kcat (CobB [3]; [7]): 0.97 ± 0.02 s⁻¹
- kcat/Km (CobB [3]; [7]): 52000 M⁻¹ s⁻¹
- kcat (CobB [3]; [8]): 0.99 ± 0.04 s⁻¹
- kcat/Km (CobB [3]; [8]): 39000 M⁻¹ s⁻¹
- Kla level (whole-cell lysates): significant decrease in Kla levels
- delactylation of peptide by CobB (CobB [4]): efficiently catalyzed the hydrolysis of the lactyl peptide in the presence of NAD^+; also recorded: the delactylated peptide was not detected in the reaction without NAD^+
- delactylation of candidate proteins (PykF, GpmA, Mdh): can clearly delactylate pyruvate kinase I (PykF), 2,3-bisphosphoglycerate-dependent phosphoglycerate mutase (GpmA) and malate dehydrogenase (Mdh) in vitro
- PykF activity after CobB erasing K382la (PykF): enhanced PykF activity in vitro
